Reference: US20250333513A1 (Immunocore, published 2025)

Key:
[1] = biological target: T1, extracellular region of human PD-1 (human, UniProt Q15116 25-170); assay: method not given
T1 construct: also called extracellular domain of human PD-1

[2] = biological target: T1, extracellular region of human PD-1; assay: method not given; lower end of the printed range 50-70 nM

T1 sequence (Q15116 25-170 limits assumed): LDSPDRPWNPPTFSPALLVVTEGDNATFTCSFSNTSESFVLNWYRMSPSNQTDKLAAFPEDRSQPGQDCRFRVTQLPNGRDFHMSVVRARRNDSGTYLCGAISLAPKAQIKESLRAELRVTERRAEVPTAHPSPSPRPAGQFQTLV

B1: PD-1 agonist VHH (camelid PD-1 agonist VHH) (VHH)
VHH: EVQLVESGGALVQPGGSLRLSCAASGFTFSSYAMTWVRQAPGKGPEWVSAIASDGASTSYLDSVKGRFTVSRDNAKNTLYLQMNSLKPEDTAVYYCARGGYLTYDRYGQGTQVTVSS
notes: also called PD-1 VHH domain; PD-1 VHH antibody
B1 was tested, and the binding half-life [1] was 15 to 20 s and the Kd [2] was 50 to 70 nM.
